Laboratory results as given in paper PMC11527256.

What was measured:
[1] = target: K48-linked tetra-UB (UniProt P0CG48); test: SEC-SAXS; complexes assembled at 170 μM, 1:1, in 20 mM HEPES pH 8.0, 150 mM NaCl, 1 mM TCEP; Superdex 75 10/300 increase coupled to SAXS (ESRF BM29)
[2] = target: K48-linked tri-UB (UniProt P0CG48); test: as above
[3] = target: K48-linked di-UB (UniProt P0CG48); test: as above
[4] = target: K63-linked di-UB (UniProt P0CG48); test: ITC
[5] = target: K48-linked tetra-UB (UniProt P0CG48); test: ITC
[6] = target: K63-linked tetra-UB (UniProt P0CG48); test: ITC
[7] = target: K63-linked tri-UB (UniProt P0CG48); test: ITC
[8] = target: K48-linked tri-UB (UniProt P0CG48); test: ITC
[9] = target: K48-linked penta-UB (UniProt P0CG48); test: ITC
[10] = target: K63-linked penta-UB (UniProt P0CG48); test: ITC
[11] = target: K48-linked di-UB (UniProt P0CG48); test: ITC

“Cdu1^CA, catalytically inactive Cdu1(130-401) with C345 mutated to Ala (from UniProt B0B9A0 130-401) (enzyme)” showed a stoichiometry N [1] of 1, a stoichiometry N [2] of 1 and a stoichiometry N [3] of 1. For the same substance, the Kd [4] was 2.52 µM, the dH [4] was 5.99 kcal/mol and the stoichiometry N [4] was 0.92. It also gave a Kd [5] of 0.31 µM, a dH [5] of 9.63 kcal/mol and a stoichiometry N [5] of 0.99. It also gave a Kd [6] of 4.47 µM, a dH [6] of 9.93 kcal/mol and a stoichiometry N [6] of 1.6. It also gave a Kd [7] of 3.01 µM, a dH [7] of 7.34 kcal/mol and a stoichiometry N [7] of 1.24. The Kd [8] was 0.8 µM, the dH [8] was 7.05 kcal/mol and the stoichiometry N [8] was 1.01. For the same substance, the Kd [9] was 0.28 µM, the dH [9] was 10 kcal/mol and the stoichiometry N [9] was 0.99. The Kd [10] was 6.56 µM, the dH [10] was 10.9 kcal/mol and the stoichiometry N [10] was 2.3. It also gave a Kd [11] of 2.58 µM, a dH [11] of 3.67 kcal/mol and a stoichiometry N [11] of 1.02.

Work on “Cdu1^CA M149A/M153A variant (from UniProt B0B9A0 130-401) (enzyme)” yielded a Kd [5] of 1.24 µM, a dH [5] of 10.9 kcal/mol and a stoichiometry N [5] of 0.95. The Kd [8] was 1.78 µM, the dH [8] was 6.4 kcal/mol and the stoichiometry N [8] was 1.01. For the same substance, the Kd [11] was 2.91 µM, the dH [11] was 1.89 kcal/mol and the stoichiometry N [11] was 0.98.

Work on “Cdu1^CA Q384A/A385R variant (from UniProt B0B9A0 130-401) (enzyme)” yielded a Kd [5] of 1.42 µM, a dH [5] of 7.86 kcal/mol and a stoichiometry N [5] of 1.14. It also gave a Kd [8] of 1.65 µM, a dH [8] of 7.7 kcal/mol and a stoichiometry N [8] of 1.04. For the same substance, the Kd [11] was 3.44 µM, the dH [11] was 3.89 kcal/mol and the stoichiometry N [11] was 0.96.
